Measurements published in article PMC6668441, “Comparative Study of Subcutaneous and Orthotopic Mouse Models of Prostate Cancer: Vascular Perfusion, Vasculature Density, Hypoxic Burden and BB2r-Targeting Efficacy” (Scientific Reports, 2019).

Legend:
[1] = Radiochemical stability in stabilizing buffers (RP-HPLC); assay type: physicochemical; settings: PBS, 0.37 MBq in 1 mL, 4 °C, 72 h
Procedure: Briefly, 0.37 MBq of radiolabeled compounds were incubated with 1 mL of: A) PBS; B) ascorbic acid in 0.9% sodium chloride solution (40 mg/ml); and C) Selenomethionine (0.2 mg/ml) and ascorbic acid (40 mg/ml) in 0.9% sodium chloride solution at 4 °C for 24, 48 and 72 h. The stability of the radioconjugate at each time point was calculated based on the integration of the RP-HPLC chromatograms.
(§1) Peptide synthesis was performed using an automated solid-phase peptide synthesizer employing traditional Fmoc chemistry and using a Rink Amide resin. Briefly, the resin (100 µmol of the resin substituted peptide anchors) was deprotected using piperidine, resulting in the formation of a primary amine from which the C-terminus of the growing peptide was anchored.
The Fmoc protected amino acids (300 µmol) with appropriate orthogonal protection were activated with HBTU and sequentially added to the resin. […] All conjugate were peak purified to • 95% purity and quantified by RP-HPLC prior to in vitro/in vivo investigations. […]
(§2) The partition coefficient was determined for the 177Lu-labeled conjugate. […] Aliquots of 100 µL were taken from each layer and the radioactivity of each was quantified by a Ȗ-counter. […]

[2] = Biodistribution, BB2r-targeted uptake, subcutaneous PC-3 xenograft model; settings: female, NOD SCID, mouse, iv, total radioactivity, 1 h 5 min p.i., mean ± SD; for dose excreted at 65 min: urine and faeces, excretion (urine and fecal material)
physchem = assay type: physicochemical; settings: pH 7.4
Procedure: as §1
The Fmoc protected amino acids (300 µmol) with appropriate orthogonal protection were activated with HBTU and sequentially added to the resin. The resulting peptide was orthogonally deprotected and cleaved from the resin using a cocktail consisting of triisopropyl silane (0.1 mL), water (0.1 mL), 3,6-dioxa-1,8-octanedithiol (0.1 mL), trifluoroacetic acid (4.625 mL) and thioanisole (0.075 mL), respectively. The cleaved peptide was subsequently precipitated and washed using cold (0 °C) methyl-tert-butyl ether (10 mL×3). The crude conjugate was dried by a centrivap concentrator and weighed. ES-MS was used to determine the molecular mass of the prepared peptides. All conjugate were peak purified to • 95% purity and quantified by RP-HPLC prior to in vitro/in vivo investigations.
HPLC Purification and Analysis Methodology […]
as §2

`CSCC[C@H](NC(=O)[C@H](CC(C)C)NC(=O)[C@H](Cc1c[nH]cn1)NC(=O)CNC(=O)[C@@H](NC(=O)[C@H](C)NC(=O)[C@H](Cc1c[nH]c2ccccc12)NC(=O)[C@H](CCC(N)=O)NC(=O)CCOCCOCCOCCOCCNC(=O)[C@@H](CO)NC(=O)[C@@H](CO)NC(=O)[C@@H](CO)NC(=O)[C@@H](CO)NC(=O)[C@@H](CO)NC(=O)CN1CCN(CC(=O)O)CCN(CC(=O)O)CCN(CC(=O)O)CC1)C(C)C)C(N)=O` [[^177Lu]Lu-DOTA-SP714, metal not drawn] gave a radiolytic degradation [1] of 39.9%, a tissue uptake at 65 min ([2]; blood, 10 uCi, blood uptake, tumor volume 300-700 mm^3, 10 µCi i.v.) of 0.78 ± 0.81 %ID/g and a tissue uptake at 65 min ([2]; blood, 10 uCi, blood uptake, tumor volume <300 mm^3, 10 µCi i.v.) of 0.49 ± 0.4 %ID/g. It also gave a tissue uptake at 65 min ([2]; blood, 10 uCi, blood uptake, tumor volume >700 mm^3, 10 µCi i.v.) of 2.27 ± 0.6 %ID/g, a tissue uptake at 65 min ([2]; bone, 10 uCi, bone uptake, tumor volume 300-700 mm^3, 10 µCi i.v.) of 0.26 ± 0.19 %ID/g and a tissue uptake at 65 min ([2]; bone, 10 uCi, bone uptake, tumor volume <300 mm^3, 10 µCi i.v.) of 0.2 ± 0.12 %ID/g. The tissue uptake at 65 min ([2]; bone, 10 uCi, bone uptake, tumor volume >700 mm^3, 10 µCi i.v.) was 0.67 ± 0.07 %ID/g, the tissue uptake at 65 min ([2]; brain, 10 uCi, brain uptake, tumor volume 300-700 mm^3, 10 µCi i.v.) was 0.03 ± 0.01 %ID/g and the tissue uptake at 65 min ([2]; brain, 10 uCi, brain uptake, tumor volume <300 mm^3, 10 µCi i.v.) was 0.03 ± 0.02 %ID/g. The tissue uptake at 65 min ([2]; brain, 10 uCi, brain uptake, tumor volume >700 mm^3, 10 µCi i.v.) was 0.09 ± 0.05 %ID/g, the tissue uptake at 65 min ([2]; heart, 10 uCi (370 kBq), heart uptake, tumor volume 300-700 mm^3, 10 µCi i.v.) was 0.16 ± 0.03 %ID/g and the tissue uptake at 65 min ([2]; heart, 10 uCi (370 kBq), heart uptake, tumor volume >700 mm^3, 10 µCi i.v.) was 0.68 ± 0.48 %ID/g. The tissue uptake at 65 min ([2]; heart, 10 uCi, heart uptake, tumor volume <300 mm^3, 10 µCi i.v.) was 0.16 ± 0.05 %ID/g, the tissue uptake at 65 min ([2]; kidney, 10 uCi, kidney uptake, tumor volume 300-700 mm^3, 10 µCi i.v.) was 2.59 ± 1.02 %ID/g and the tissue uptake at 65 min ([2]; kidney, 10 uCi, kidney uptake, tumor volume <300 mm^3, 10 µCi i.v.) was 2.75 ± 1.29 %ID/g. The tissue uptake at 65 min ([2]; kidney, 10 uCi, kidney uptake, tumor volume >700 mm^3, 10 µCi i.v.) was 6.64 ± 2.83 %ID/g, the tissue uptake at 65 min ([2]; large intestine, 10 uCi, large intestine uptake, tumor volume 300-700 mm^3, 10 µCi i.v.) was 2.63 ± 2.12 %ID/g and the tissue uptake at 65 min ([2]; large intestine, 10 uCi, large intestine uptake, tumor volume <300 mm^3, 10 µCi i.v.) was 1.38 ± 0.75 %ID/g. For the same compound, the tissue uptake at 65 min ([2]; large intestine, 10 uCi, large intestine uptake, tumor volume >700 mm^3, 10 µCi i.v.) was 3.75 ± 2.89 %ID/g, the tissue uptake at 65 min ([2]; liver, 10 uCi, liver uptake, tumor volume 300-700 mm^3, 10 µCi i.v.) was 0.31 ± 0.06 %ID/g and the tissue uptake at 65 min ([2]; liver, 10 uCi, liver uptake, tumor volume <300 mm^3, 10 µCi i.v.) was 0.29 ± 0.12 %ID/g. For the same compound, the tissue uptake at 65 min ([2]; liver, 10 uCi, liver uptake, tumor volume >700 mm^3, 10 µCi i.v.) was 0.9 ± 0.49 %ID/g, the tissue uptake at 65 min ([2]; lung, 10 uCi (370 kBq), lung uptake, tumor volume 300-700 mm^3, 10 µCi i.v.) was 0.64 ± 0.39 %ID/g and the tissue uptake at 65 min ([2]; lung, 10 uCi (370 kBq), lung uptake, tumor volume <300 mm^3, 10 µCi i.v.) was 1.08 ± 1.55 %ID/g. It also gave a tissue uptake at 65 min ([2]; lung, 10 uCi, lung uptake, tumor volume >700 mm^3, 10 µCi i.v.) of 1.39 ± 0.67 %ID/g, a tissue uptake at 65 min ([2]; muscle, 10 uCi, muscle uptake, tumor volume 300-700 mm^3, 10 µCi i.v.) of 0.15 ± 0.07 %ID/g and a tissue uptake at 65 min ([2]; muscle, 10 uCi, muscle uptake, tumor volume <300 mm^3, 10 µCi i.v.) of 0.17 ± 0.12 %ID/g. It also gave a tissue uptake at 65 min ([2]; muscle, 10 uCi, muscle uptake, tumor volume >700 mm^3, 10 µCi i.v.) of 0.46 ± 0.24 %ID/g, a tissue uptake at 65 min ([2]; pancreas, 10 uCi, pancreas uptake, tumor volume 300-700 mm^3, 10 µCi i.v.) of 23.8 ± 8.43 %ID/g and a tissue uptake at 65 min ([2]; pancreas, 10 uCi, pancreas uptake, tumor volume <300 mm^3, 10 µCi i.v.) of 19.4 ± 13 %ID/g. It also gave a tissue uptake at 65 min ([2]; pancreas, 10 uCi, pancreas uptake, tumor volume >700 mm^3, 10 µCi i.v.) of 22.6 ± 7.83 %ID/g, a tissue uptake at 65 min ([2]; small intestine, 10 uCi, small intestine uptake, tumor volume 300-700 mm^3, 10 µCi i.v.) of 2.82 ± 1.14 %ID/g and a tissue uptake at 65 min ([2]; small intestine, 10 uCi, small intestine uptake, tumor volume <300 mm^3, 10 µCi i.v.) of 2.53 ± 1.39 %ID/g. The tissue uptake at 65 min ([2]; small intestine, 10 uCi, small intestine uptake, tumor volume >700 mm^3, 10 µCi i.v.) was 4.21 ± 1.92 %ID/g, the tissue uptake at 65 min ([2]; spleen, 10 uCi, spleen uptake, tumor volume 300-700 mm^3, 10 µCi i.v.) was 2.53 ± 1.31 %ID/g and the tissue uptake at 65 min ([2]; spleen, 10 uCi, spleen uptake, tumor volume <300 mm^3, 10 µCi i.v.) was 1.46 ± 1.32 %ID/g. The tissue uptake at 65 min ([2]; spleen, 10 uCi, spleen uptake, tumor volume >700 mm^3, 10 µCi i.v.) was 3.02 ± 0.63 %ID/g, the tissue uptake at 65 min ([2]; stomach, 10 uCi, stomach uptake, tumor volume 300-700 mm^3, 10 µCi i.v.) was 1.68 ± 0.85 %ID/g and the tissue uptake at 65 min ([2]; stomach, 10 uCi, stomach uptake, tumor volume <300 mm^3, 10 µCi i.v.) was 0.94 ± 0.53 %ID/g. For the same compound, the tissue uptake at 65 min ([2]; stomach, 10 uCi, stomach uptake, tumor volume >700 mm^3, 10 µCi i.v.) was 4.89 ± 3.52 %ID/g, the tissue uptake at 65 min ([2]; tumor, 10 uCi, tumor uptake, tumor volume 300-700 mm^3, 10 µCi i.v.) was 5.35 ± 1.75 %ID/g and the tissue uptake at 65 min ([2]; tumor, 10 uCi, tumor uptake, tumor volume <300 mm^3, 10 µCi i.v.) was 4.16 ± 1.74 %ID/g. For the same compound, the tissue uptake at 65 min ([2]; tumor, 10 uCi, tumor uptake, tumor volume >700 mm^3, 10 µCi i.v.) was 9.44 ± 3.66 %ID/g, the dose excreted at 65 min ([2]; 10 uCi, tumor volume 300-700 mm^3, 10 µCi i.v.) was 73.2 ± 7% and the dose excreted at 65 min ([2]; 10 uCi, tumor volume <300 mm^3, 10 µCi i.v.) was 68.5 ± 23.4%. The dose excreted at 65 min ([2]; 10 uCi, tumor volume >700 mm^3, 10 µCi i.v.) was 59 ± 12.4% and the logD (physchem) was -2.2 ± 0.1.
